{"source": "IntAct's records for PubMed 24510189", "parents": {"B1": {"name": "mRNA-decapping enzyme 1A (Homo sapiens), Q9NPI6 (parent)", "chain": "MEALSRAGQEMSLAALKQHDPYITSIADLTGQVALYTFCPKANQWEKTDIEGTLFVYRRSASPYHGFTIVNRLNMHNLVEPVNKDLEFQLHEPFLLYRNASLSIYSIWFYDKNDCHRIAKLMADVVEEETRRSQQAARDKQSPSQANGCSDHRPIDILEMLSRAKDEYERNQMGDSNISSPGLQPSTQLSNLGSTETLEEMPSGSQDKSAPSGHKHLTVEELFGTSLPKEQPAVVGLDSEEMERLPGDASQKEPNSFLPFPFEQLGGAPQSETLGVPSAAHHSVQPEITTPVLITPASITQSNEKHAPTYTIPLSPVLSPTLPAEAPTAQVPPSLPRNSTMMQAVKTTPRQRSPLLNQPVPELSHASLIANQSPFRAPLNVTNTAGTSLPSVDLLQKLRLTPQHDQIQTQPLGKGAMVASFSPAAGQLATPESFIEPPSKTAAARVAASASLSNMVLAPLQSMQQNQDPEVFVQPKVLSSAIPVAGAPLVTATTTAVSSVLLAPSVFQQTVTRSSDLERKASSPSPLTIGTPESQRKPSIILSKSQLQDTLIHLIKNDSSFLSTLHEVYLQVLTKNKDNHNL", "partner": "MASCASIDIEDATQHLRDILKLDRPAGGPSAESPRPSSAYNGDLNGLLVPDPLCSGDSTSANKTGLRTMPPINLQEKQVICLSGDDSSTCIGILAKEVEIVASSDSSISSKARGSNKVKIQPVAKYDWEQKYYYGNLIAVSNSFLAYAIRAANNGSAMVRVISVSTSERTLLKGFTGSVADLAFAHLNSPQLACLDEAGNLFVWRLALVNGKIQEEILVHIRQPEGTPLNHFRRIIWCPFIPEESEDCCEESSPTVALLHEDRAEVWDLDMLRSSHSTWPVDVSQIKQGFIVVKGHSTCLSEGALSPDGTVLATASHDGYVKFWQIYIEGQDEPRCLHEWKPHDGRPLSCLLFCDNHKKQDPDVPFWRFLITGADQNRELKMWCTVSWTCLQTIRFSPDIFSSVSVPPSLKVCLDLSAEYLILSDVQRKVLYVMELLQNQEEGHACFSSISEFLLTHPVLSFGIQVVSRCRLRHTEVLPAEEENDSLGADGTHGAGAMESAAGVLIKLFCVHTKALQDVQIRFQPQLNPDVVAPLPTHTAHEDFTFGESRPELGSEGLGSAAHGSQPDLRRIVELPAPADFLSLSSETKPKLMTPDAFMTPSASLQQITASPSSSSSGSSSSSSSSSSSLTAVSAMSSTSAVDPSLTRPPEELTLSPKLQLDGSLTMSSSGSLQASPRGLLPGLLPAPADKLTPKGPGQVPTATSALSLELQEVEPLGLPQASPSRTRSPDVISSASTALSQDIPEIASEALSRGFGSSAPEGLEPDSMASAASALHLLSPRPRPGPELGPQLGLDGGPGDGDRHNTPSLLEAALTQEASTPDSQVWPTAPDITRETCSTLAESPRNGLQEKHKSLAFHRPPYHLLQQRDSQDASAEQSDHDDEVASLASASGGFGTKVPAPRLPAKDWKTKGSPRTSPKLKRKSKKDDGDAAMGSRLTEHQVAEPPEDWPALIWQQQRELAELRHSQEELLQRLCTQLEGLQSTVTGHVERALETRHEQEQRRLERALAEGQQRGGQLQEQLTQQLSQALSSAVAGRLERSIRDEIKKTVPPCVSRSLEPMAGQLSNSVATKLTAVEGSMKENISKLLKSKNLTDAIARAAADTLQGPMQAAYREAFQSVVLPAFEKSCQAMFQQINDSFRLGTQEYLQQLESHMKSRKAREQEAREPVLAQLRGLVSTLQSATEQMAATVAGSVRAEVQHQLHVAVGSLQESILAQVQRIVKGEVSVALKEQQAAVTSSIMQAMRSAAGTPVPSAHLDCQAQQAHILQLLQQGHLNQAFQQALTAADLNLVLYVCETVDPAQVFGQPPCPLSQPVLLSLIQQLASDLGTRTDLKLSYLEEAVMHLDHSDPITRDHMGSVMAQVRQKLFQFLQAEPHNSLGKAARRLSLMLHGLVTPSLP"}, "B2": {"name": "mRNA-decapping enzyme 1A (Homo sapiens), Q9NPI6 (parent)", "chain": "B1 chain"}}}
{"variants_of": "B1", "conditions": "with edc4_human EDC4, Q6P2E9"}
{"variant": "R72G", "effect of a mutation on the interaction": "with no effect"}
{"variant": "R72G;L73S;N74S;M75G", "effect of a mutation on the interaction": "with no effect"}
{"variant": "N74G", "effect of a mutation on the interaction": "with no effect"}
{"variant": "H19A", "effect of a mutation on the interaction": "with no effect"}
{"variant": "S12A;H19A", "effect of a mutation on the interaction": "with no effect"}
{"variant": "Q18A;H19A", "effect of a mutation on the interaction": "with no effect"}
{"variant": "S12A;Q18A;H19A", "effect of a mutation on the interaction": "with no effect"}
{"variant": "L554S;F561R;L565S", "effect of a mutation on the interaction": "disrupting interaction strength"}
{"variants_of": "B2", "conditions": "with dcp2_human DCP2, Q8IU60"}
{"variant": "H19A", "effect of a mutation on the interaction": "with no effect"}
{"variant": "S12A;Q18A;H19A", "effect of a mutation on the interaction": "disrupting interaction strength"}
{"variant": "Q18A;H19A", "effect of a mutation on the interaction": "decreasing interaction strength"}
{"variant": "S12A;H19A", "effect of a mutation on the interaction": "decreasing interaction strength"}
{"variant": "L554S;F561R;L565S", "effect of a mutation on the interaction": "disrupting interaction strength"}
{"variants_of": "B2", "conditions": "with pnrc2_human PNRC2, Q9NPJ4"}
{"variant": "S12A;Q18A;H19A", "effect of a mutation on the interaction": "with no effect"}
{"variant": "R72G;N74G", "effect of a mutation on the interaction": "with no effect"}
{"variant": "R72G;L73S;N74S;M75G", "effect of a mutation on the interaction": "with no effect"}
{"variants_of": "B2", "conditions": "with dcp2_human DCP2, Q8IU60", "remark": "another data set of the same source"}
{"variant": "R72G;L73S;N74S;M75G", "effect of a mutation on the interaction": "with no effect"}
{"variant": "L554S;F561R;L565S", "effect of a mutation on the interaction": "disrupting interaction strength"}
{"variant": "N74G", "effect of a mutation on the interaction": "with no effect"}
{"variant": "R72G", "effect of a mutation on the interaction": "with no effect"}
{"variants_of": "B2", "conditions": "with dcp2_human DCP2, Q8IU60", "remark": "another data set of the same source"}
{"variant": "L4E;A14Q", "effect of a mutation on the interaction": "with no effect"}
